Results from patent EP2985295A1 (Calypso Biotech SA, dated 2016).
Numbering of substitutions follows the chain as printed.

B1: G03-VH-GL / G06-VL-GL1 (antibody, V domains shown)
VH: EVQLVQSGAEVKKPGASVKVSCKASGYTFTSYGISWVRQAPGQGLEWMGWISAYNGNTNYAQKLQGRVTMTTDTSTSTAYMELRSLRSDDTAVYYCARDYYGMDVWGQGTTVTVSS
VL: QAVLTQPPSASGTPGQRVTISCSGSTFNIGSNTVNWYQQLPGTAPKLLIYSDSHRPSGVPDRFSGSNSWNTASLAISGLQSEDEADYYCQAWDSSAVVFGGGTKVTVLG
B2: G03-VH-GL-V1-V9 / G06-VL-GL1 (antibody, V domains shown)
VH: B1 VH with W50Y, G56A
VL: B1 VL
B3: G03-VH-GL-V1 / G06-VL-GL1 (antibody, V domains shown)
VH: B1 VH with W50Y
VL: B1 VL

Key:
Assay in all cases: cell-based or functional assay
[1] = target: Human proMMP9 (human, UniProt P14780 20-707)
Sequence of Human proMMP9 (P14780 20-707): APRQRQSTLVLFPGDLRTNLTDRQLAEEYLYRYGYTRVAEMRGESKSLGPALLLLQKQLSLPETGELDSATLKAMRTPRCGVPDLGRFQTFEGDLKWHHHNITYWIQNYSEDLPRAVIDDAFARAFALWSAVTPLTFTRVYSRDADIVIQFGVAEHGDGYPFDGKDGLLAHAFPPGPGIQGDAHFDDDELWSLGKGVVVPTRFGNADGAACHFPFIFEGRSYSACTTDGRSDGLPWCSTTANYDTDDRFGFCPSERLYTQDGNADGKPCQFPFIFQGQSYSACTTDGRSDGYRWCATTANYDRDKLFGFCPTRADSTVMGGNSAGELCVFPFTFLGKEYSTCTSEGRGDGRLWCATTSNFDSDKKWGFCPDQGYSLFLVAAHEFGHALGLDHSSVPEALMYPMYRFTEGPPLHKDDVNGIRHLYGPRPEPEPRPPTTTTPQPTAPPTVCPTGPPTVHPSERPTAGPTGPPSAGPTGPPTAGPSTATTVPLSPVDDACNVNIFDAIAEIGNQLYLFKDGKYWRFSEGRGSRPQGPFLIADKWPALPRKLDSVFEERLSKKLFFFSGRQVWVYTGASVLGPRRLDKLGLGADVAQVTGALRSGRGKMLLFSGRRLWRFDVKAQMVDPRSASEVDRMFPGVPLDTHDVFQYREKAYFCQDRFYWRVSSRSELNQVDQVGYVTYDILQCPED

[2] = target: Human MMP9 (i.e. activated MMP9) (human, UniProt P14780 107-707)
Sequence of Human MMP9 (i.e. activated MMP9) (P14780 107-707): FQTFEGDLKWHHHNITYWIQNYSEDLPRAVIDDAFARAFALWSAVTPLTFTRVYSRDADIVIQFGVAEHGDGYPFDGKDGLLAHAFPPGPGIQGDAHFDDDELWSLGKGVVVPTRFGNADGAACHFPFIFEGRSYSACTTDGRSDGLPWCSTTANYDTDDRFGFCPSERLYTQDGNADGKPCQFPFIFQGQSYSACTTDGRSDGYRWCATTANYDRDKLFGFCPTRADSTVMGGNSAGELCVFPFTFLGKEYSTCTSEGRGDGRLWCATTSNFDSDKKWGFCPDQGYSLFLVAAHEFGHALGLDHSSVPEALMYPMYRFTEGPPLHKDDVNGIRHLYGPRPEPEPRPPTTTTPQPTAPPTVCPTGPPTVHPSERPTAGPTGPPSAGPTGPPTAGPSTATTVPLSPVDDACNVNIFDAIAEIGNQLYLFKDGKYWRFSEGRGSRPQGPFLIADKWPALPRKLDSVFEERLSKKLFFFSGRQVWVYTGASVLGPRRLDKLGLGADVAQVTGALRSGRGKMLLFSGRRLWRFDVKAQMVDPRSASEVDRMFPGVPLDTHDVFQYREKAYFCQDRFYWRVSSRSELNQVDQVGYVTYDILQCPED

[3] = target: rat proMMP9 (rat, UniProt P50282 20-708)
Sequence of rat proMMP9 (P50282 20-708): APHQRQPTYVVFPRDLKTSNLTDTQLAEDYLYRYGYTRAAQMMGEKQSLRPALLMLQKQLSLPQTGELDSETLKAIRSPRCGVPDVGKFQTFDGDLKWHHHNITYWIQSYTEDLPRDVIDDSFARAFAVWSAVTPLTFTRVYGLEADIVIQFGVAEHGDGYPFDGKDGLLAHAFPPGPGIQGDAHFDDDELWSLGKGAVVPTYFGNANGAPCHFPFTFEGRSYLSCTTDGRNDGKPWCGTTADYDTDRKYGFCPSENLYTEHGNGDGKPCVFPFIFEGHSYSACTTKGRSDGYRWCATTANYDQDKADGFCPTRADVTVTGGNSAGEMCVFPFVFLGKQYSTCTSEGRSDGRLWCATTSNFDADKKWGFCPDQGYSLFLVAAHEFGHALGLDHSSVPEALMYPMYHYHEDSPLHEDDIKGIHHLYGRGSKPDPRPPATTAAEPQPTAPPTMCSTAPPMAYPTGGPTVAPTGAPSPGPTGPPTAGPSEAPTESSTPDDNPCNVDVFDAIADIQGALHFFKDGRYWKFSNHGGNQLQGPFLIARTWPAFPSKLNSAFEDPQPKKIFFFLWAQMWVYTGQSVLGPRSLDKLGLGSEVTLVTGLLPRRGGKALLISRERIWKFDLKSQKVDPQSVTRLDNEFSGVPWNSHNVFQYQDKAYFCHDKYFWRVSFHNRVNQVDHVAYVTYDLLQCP

[4] = target: Cyno proMMP9 (Cynomologus monkey)
[5] = target: mouse proMMP9 (mouse, UniProt P41245 20-730)
Sequence of mouse proMMP9 (P41245 20-730): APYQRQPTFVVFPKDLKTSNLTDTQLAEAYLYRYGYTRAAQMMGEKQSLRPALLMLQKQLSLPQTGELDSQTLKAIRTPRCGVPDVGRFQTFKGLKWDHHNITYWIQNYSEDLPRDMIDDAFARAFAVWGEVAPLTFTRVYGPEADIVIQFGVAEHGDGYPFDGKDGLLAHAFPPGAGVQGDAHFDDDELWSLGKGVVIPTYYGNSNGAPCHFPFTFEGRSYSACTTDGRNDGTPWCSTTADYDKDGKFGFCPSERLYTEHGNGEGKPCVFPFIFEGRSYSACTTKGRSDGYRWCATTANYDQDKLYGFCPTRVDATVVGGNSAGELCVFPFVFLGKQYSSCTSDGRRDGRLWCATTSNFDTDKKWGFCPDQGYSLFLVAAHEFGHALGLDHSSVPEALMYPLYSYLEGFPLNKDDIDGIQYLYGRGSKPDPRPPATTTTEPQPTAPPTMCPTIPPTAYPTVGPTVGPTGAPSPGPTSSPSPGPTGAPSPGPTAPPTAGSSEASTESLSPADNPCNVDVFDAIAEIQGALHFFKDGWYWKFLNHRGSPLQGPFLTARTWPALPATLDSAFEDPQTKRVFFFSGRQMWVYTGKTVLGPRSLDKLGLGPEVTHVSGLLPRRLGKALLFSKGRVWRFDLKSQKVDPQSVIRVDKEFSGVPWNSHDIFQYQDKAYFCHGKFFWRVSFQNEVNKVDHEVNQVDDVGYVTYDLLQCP

Row | Efficiency, neutralization of proMMP9 processing and/or downstream catalytic activity on DQ-gelatin (MMP3/MMP9 assay) [1] | IC50 (nM), neutralization of proMMP9 processing and/or downstream catalytic activity on DQ-gelatin (MMP3/MMP9 assay) [1] | Efficiency, neutralization of catalytic activity on DQ-gelatin (MMP9 assay) [2] | IC50 (nM), neutralization of catalytic activity on DQ-gelatin (MMP9 assay) [2] | Efficiency, neutralization of processing of rat MMP9 and/or its catalytic activity on gelatin (MMP3/MMP9 assay) [3] | IC50 (nM), neutralization of processing of rat MMP9 and/or its catalytic activity on gelatin (MMP3/MMP9 assay) [3] | Efficiency, neutralization of processing of cyno MMP9 and/or its catalytic activity on gelatin (MMP3/MMP9 assay) [4] | IC50 (nM), neutralization of processing of cyno MMP9 and/or its catalytic activity on gelatin (MMP3/MMP9 assay) [4] | Efficiency, neutralization of processing of mouse MMP9 and/or its catalytic activity on gelatin (MMP3/MMP9 assay) [5] | IC50 (nM), neutralization of processing of mouse MMP9 and/or its catalytic activity on gelatin (MMP3/MMP9 assay) [5] | Binder
1 | 100% | 0.21 nM | 50% | 0.13 nM | 100% | 64.7 nM | 100% | 0.04 nM | 30% | 151 nM | B1
2 | 100% | 0.21 nM | 50% | 0.11 nM | 100% | 93.6 nM | 100% | 0.14 nM | 25% | 12.6 nM | B2
3 | 100% | 0.19 nM | 50% | 0.06 nM | 100% | 19 nM | 100% | 0.03 nM | 25% | 16.4 nM | B3
